According to ChEMBL document CHEMBL1123679, “5-Quinone derivatives of 2'-deoxyuridine 5'-phosphate: inhibition and inactivation of thymidylate synthase, antitumor cell, and antiviral studies” (J Med Chem, 1987):

B1: Thymidylate synthase (Mus musculus), P07607 (protein)
chain: MLVVGSELQSDAQQLSAEAPRHGELQYLRQVEHILRCGFKKEDRTGTGTLSVFGMQARYSLRDEFPLLTTKRVFWKGVLEELLWFIKGSTNAKELSSKGVRIWDANGSRDFLDSLGFSARQEGDLGPVYGFQWRHFGAEYKDMDSDYSGQGVDQLQKVIDTIKTNPDDRRIIMCAWNPKDLPLMALPPCHALCQFYVVNGELSCQLYQRSGDMGLGVPFNIASYALLTYMIAHITGLQPGDFVHTLGDAHIYLNHIEPLKIQLQREPRPFPKLKILRKVETIDDFKVEDFQIEGYNPHPTIKMEMAV
B2: Thymidylate synthase (Lactobacillus casei), P00469 (protein)
chain: MLEQPYLDLAKKVLDEGHFKPDRTHTGTYSIFGHQMRFDLSKGFPLLTTKKVPFGLIKSELLWFLHGDTNIRFLLQHRNHIWDEWAFEKWVKSDEYHGPDMTDFGHRSQKDPEFAAVYHEEMAKFDDRVLHDDAFAAKYGDLGLVYGSQWRAWHTSKGDTIDQLGDVIEQIKTHPYSRRLIVSAWNPEDVPTMALPPCHTLYQFYVNDGKLSLQLYQRSADIFLGVPFNIASYALLTHLVAHECGLEVGEFIHTFGDAHLYVNHLDQIKEQLSRTPRPAPTLQLNPDKHDIFDFDMKDIKLLNYDPYPAIKAPVAV

Columns and labels:
[1] = substrate: CC1=C(C)C(=O)C(c2cn([C@H]3C[C@H](O)[C@@H](COP(=O)(O)O)O3)c(=O)[nH]c2=O)=CC1=O; settings: L1210
[2] = substrate: CC1=C(c2cn([C@H]3C[C@H](O)[C@@H](COP(=O)(O)O)O3)c(=O)[nH]c2=O)C(=O)c2ccccc2C1=O; settings: L1210
[3] = substrate: CC1=C(C)C(=O)C(c2cn([C@H]3C[C@H](O)[C@@H](COP(=O)(O)O)O3)c(=O)[nH]c2=O)=C(C)C1=O; settings: L1210
[4] = compound: O=C1C=CC(=O)C(c2cn([C@H]3C[C@H](O)[C@@H](COP(=O)(O)O)O3)c(=O)[nH]c2=O)=C1; test: (§1) Ability to inhibit the thymidylate synthase from Lactobacillus casei was determined and expressed as inhibition constant(Km); settings: Lacticaseibacillus casei
[5] = compound: COc1c(C)c(-c2cn([C@H]3C[C@H](O)[C@@H](COP(=O)(O)O)O3)c(=O)[nH]c2=O)c(OC)c2ccccc12; test: as §1; settings: Lacticaseibacillus casei
[6] = compound: COc1c(C)c(C)c(OC)c(-c2cn([C@H]3C[C@H](O)[C@@H](COP(=O)(O)O)O3)c(=O)[nH]c2=O)c1C; test: as §1; settings: Lacticaseibacillus casei
[7] = substrate: CC1=C(C)C(=O)C(c2cn([C@H]3C[C@H](O)[C@@H](COP(=O)(O)O)O3)c(=O)[nH]c2=O)=CC1=O; settings: Lacticaseibacillus casei
[8] = substrate: CC1=C(c2cn([C@H]3C[C@H](O)[C@@H](COP(=O)(O)O)O3)c(=O)[nH]c2=O)C(=O)c2ccccc2C1=O; settings: Lacticaseibacillus casei
[9] = substrate: CC1=C(C)C(=O)C(c2cn([C@H]3C[C@H](O)[C@@H](COP(=O)(O)O)O3)c(=O)[nH]c2=O)=C(C)C1=O; settings: Lacticaseibacillus casei
[10] = substrate: COc1cc(-c2cn([C@H]3C[C@H](O)[C@@H](COP(=O)(O)O)O3)c(=O)[nH]c2=O)c(OC)c(C)c1C; settings: Lacticaseibacillus casei

Protein | Km [1] [µM] | Km [2] [µM] | Km [3] [µM] | Km [4] [µM] | Km [5] [µM] | Km [6] [µM] | Km [7] [µM] | Km [8] [µM] | Km [9] [µM] | Km [10] [µM]
B1 | 2.46 | 0.6 | 0.57 |  |  |  |  |  |  | 
B2 |  |  |  | 7.6 | 5.25 | 5.25 | 6.98 | 6.41 | 6.98 | 5.25
